This passage reports EC50 of the NFAT-driven luciferase reporter (RLU) in HEK293-TSHR/NFAT-Luc cells seeded results from PMC11901838.

The target of this assay is Human thyroid-stimulating hormone receptor (human) (UniProt P16473).
Chain of UniProt P16473 (P16473 21-764): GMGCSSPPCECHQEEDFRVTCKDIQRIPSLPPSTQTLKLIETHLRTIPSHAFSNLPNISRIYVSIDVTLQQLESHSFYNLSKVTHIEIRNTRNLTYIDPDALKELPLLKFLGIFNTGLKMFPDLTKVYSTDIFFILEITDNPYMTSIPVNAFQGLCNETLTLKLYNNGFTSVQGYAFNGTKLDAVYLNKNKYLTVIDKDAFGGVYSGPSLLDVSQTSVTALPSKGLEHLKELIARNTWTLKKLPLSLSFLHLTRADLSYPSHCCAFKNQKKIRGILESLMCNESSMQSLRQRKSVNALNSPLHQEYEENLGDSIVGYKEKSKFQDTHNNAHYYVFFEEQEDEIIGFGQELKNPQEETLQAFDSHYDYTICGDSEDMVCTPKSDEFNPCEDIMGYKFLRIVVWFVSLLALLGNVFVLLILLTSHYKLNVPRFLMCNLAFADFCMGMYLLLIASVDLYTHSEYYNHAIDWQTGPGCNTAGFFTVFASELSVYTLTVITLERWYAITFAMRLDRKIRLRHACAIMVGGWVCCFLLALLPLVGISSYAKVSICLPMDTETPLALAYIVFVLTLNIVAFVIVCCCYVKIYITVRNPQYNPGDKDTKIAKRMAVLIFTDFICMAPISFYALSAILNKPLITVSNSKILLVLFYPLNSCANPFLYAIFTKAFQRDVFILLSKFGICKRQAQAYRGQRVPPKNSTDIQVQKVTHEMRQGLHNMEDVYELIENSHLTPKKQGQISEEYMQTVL

Substance “Recombinant human thyroid-stimulating hormone (from UniProt P01215 25-116; P01222 21-132) (ligand)” gave an EC50 of the NFAT-driven luciferase reporter (RLU) in HEK293-TSHR/NFAT-Luc cells seeded at 0.8 × 10^5 cells/mL, serially diluted rhTSH of 0.32.
